Reference: PMC12803953, “The MO25 protein Pmo25 functions in contractile ring stability and Sid2 localization during cytokinesis” (iScience, 2025)

What was measured:
[1] = biological target: T1, MBP-Ync13-full length-6His (S. pombe, UniProt O13683 1-1237); experiment: pull-down; Kd by depletion of the supernatant: various concentrations of MBP-Ync13 proteins immobilised on amylose beads with a fixed low concentration of Pmo25-(19–329)-6His, 1 h at 4°C; supernatant on SDS-PAGE, Coomassie Blue; one site binding equation; conditions: both partners purified
T1 construct: cloned in pET21a-MBP between the MBP-TEV-GGSGGS fragment and the C-terminal 6xHis tag; A TEV site and a GGSGGS linker stand between MBP and Ync13; also called MBP-tagged full length Ync13; not shown: MBP, N-terminal, kept; His6, C-terminal, kept
T1 sequence (looked up): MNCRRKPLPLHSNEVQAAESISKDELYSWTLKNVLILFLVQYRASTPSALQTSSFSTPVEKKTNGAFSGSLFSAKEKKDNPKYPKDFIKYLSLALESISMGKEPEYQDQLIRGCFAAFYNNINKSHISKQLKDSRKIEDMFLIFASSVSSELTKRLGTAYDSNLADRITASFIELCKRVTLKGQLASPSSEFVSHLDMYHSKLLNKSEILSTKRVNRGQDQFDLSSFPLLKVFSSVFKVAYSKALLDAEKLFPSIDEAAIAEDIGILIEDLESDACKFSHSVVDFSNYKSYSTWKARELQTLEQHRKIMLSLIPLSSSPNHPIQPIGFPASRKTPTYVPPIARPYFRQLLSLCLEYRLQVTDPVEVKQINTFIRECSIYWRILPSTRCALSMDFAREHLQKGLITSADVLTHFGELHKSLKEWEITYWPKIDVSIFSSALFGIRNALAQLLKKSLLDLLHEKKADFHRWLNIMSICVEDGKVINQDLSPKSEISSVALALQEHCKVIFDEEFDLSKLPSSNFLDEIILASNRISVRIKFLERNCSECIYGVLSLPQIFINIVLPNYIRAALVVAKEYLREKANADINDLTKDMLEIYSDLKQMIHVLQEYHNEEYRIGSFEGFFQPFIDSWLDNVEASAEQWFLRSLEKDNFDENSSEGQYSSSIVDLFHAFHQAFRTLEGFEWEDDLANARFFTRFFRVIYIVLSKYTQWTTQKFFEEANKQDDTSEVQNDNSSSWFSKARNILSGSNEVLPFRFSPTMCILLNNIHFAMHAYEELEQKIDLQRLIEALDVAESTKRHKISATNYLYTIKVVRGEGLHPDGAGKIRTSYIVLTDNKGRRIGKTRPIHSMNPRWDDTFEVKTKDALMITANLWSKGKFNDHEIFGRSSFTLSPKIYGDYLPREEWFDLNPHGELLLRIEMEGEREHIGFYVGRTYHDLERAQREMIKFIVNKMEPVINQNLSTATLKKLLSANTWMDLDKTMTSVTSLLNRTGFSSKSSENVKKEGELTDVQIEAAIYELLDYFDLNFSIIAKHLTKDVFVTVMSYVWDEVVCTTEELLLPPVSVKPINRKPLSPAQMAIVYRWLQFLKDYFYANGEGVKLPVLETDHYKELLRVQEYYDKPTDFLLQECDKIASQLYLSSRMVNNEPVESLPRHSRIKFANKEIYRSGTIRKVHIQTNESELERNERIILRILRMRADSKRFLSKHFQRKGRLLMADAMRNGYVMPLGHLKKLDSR

[2] = biological target: T2, MBP-Ync13-(591–1130)-6His (S. pombe, UniProt O13683 591-1130); experiment: as above; conditions: both partners purified
T2 construct: The cloning of this fragment is not described; not shown: MBP, N-terminal, kept; His6, C-terminal, kept
T2 sequence (looked up): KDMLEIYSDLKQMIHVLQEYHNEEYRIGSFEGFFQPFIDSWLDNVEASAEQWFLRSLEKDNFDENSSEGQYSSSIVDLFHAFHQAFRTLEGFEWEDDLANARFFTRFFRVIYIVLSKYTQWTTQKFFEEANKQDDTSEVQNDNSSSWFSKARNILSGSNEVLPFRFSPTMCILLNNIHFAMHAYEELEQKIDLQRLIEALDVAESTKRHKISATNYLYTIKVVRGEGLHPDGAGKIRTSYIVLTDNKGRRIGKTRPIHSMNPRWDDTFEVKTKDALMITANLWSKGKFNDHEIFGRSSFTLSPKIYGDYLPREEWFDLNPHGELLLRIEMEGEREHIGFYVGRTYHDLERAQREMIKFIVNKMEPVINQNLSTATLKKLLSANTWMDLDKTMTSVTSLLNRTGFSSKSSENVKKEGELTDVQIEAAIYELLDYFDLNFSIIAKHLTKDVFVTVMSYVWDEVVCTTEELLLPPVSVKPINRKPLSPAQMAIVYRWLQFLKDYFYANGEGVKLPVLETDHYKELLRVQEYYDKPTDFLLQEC

B1: Pmo25-(19–329)-6His (domain or fragment, S. pombe, UniProt Q9P7Q8 19-329, looked up)
chain: LCDNLPKLEINNDKKKSFEEVSKCLQNLRVSLCGTAEVEPDADLVSDLSFQIYQSNLPFLLVRYLPKLEFESKKDTGLIFSALLRRHVASRYPTVDYMLAHPQIFPVLVSYYRYQEVAFTAGSILRECSRHEALNEVLLNSRDFWTFFSLIQASSFDMASDAFSTFKSILLNHKSQVAEFISYHFDEFFKQYTVLLKSENYVTKRQSLKLLGEILLNRANRSVMTRYISSAENLKLMMILLRDKSKNIQFEAFHVFKLFVANPEKSEEVIEILRRNKSKLISYLSAFHTDRKNDEQFNDERAFVIKQIERL
notes: in pET21a between the N-terminal T7 tag and the C-terminal 6xHis tag; not shown: His6, C-terminal, kept
[1]
  Kd: 490 nM
[2]
  Kd: 620 nM
